The source of these data is paper PMC4200255.

For this assay, the target named is recombinant purified protein HSP70-1A (UniProt P0DMV8).
Sequence of UniProt P0DMV8 (P0DMV8 whole entry): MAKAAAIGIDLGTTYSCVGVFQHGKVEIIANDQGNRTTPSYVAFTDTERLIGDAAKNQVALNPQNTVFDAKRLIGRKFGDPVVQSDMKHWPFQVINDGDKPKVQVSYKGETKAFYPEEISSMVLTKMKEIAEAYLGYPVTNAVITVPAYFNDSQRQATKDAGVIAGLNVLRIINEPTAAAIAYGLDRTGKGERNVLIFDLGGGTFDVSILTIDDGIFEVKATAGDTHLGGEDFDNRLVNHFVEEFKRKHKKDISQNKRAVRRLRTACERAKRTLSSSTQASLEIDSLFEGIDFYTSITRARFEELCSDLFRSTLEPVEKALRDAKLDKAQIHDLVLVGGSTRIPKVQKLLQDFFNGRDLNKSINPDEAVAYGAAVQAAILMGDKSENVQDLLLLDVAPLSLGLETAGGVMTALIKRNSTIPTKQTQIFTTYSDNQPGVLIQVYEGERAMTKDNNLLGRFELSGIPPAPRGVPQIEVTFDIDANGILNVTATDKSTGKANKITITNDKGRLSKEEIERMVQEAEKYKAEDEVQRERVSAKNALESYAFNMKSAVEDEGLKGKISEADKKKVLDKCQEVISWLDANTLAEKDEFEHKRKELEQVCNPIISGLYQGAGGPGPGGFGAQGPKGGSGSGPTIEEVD

For RLIITPGTFKERIIKSITPETPTE [24-mer peptide of the serotonin transporter C terminus], the stimulation of the ATPase activity of 0.7 μM HSP70 by 500 μM peptide (malachite green, 37 °C) came to 4 fold.

Take TPGTFKERIIKSITPETPTE [20-mer peptide of the serotonin transporter C terminus (lacks the first 4 amino acids RLII)]: the stimulation of the ATPase activity of 0.7 μM HSP70 by 500 μM peptide (malachite green, 37 °C) worked out at 2 fold.
